Assay results: patent US20120129720, “APTAMER THAT RECOGNIZES PEPTIDE” (KANAGAWA PREFECTURAL HOSPITAL ORGANIZATION, published 2012)

T1: His-MIF (His-tag/T7 gene 10 leader/Xpress-MIF fusion) (UniProt P14174 P14174:1-115)
T1 chain: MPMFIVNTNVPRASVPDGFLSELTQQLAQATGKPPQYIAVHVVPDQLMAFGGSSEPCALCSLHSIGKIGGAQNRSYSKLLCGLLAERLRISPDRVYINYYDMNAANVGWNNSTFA

B1: X region SEQ 2340 (ssRNA)
RNA: GGGACGCUCACGUACGCUCAUGUAUUUCUGUUAGUGCUCGGUCCUGCUGAUCGGUUAGACUCAGUGCCUGGACGUGCAGU
modifications: 3' A20 tail for capture
B2: X region SEQ 2343 (ssRNA)
RNA: GGGACGCUCACGUACGCUCACUGUGCUCGGAUUUCAUCCGGGUCCUAUACUUCUACUAUAUCAGUGCCUGGACGUGCAGU
modifications: 3' A20 tail for capture
B3: X region SEQ 2345 (ssRNA)
RNA: GGGACGCUCACGUACGCUCAUAUGUUCGACUUAAUUUGAUCUGCAUGUUUGUCUCCGGGCUCAGUGCCUGGACGUGCAGU
modifications: 3' A20 tail for capture
B4: X region SEQ 2344 (ssRNA)
RNA: GGGACGCUCACGUACGCUCAGUCCAUUUUCGUCGUGUAAUUUCGGCAACGGUUCCGGGGAUCAGUGCCUGGACGUGCAGU
modifications: 3' A20 tail for capture
B5: X region SEQ 2342 (ssRNA)
RNA: GGGACGCUCACGUACGCUCAUGACAUCUGAGGCUUUUUUCUUGGGGAAUUUUCCGAGACCUCAGUGCCUGGACGUGCAGU
modifications: 3' A20 tail for capture
B6: X region SEQ 2346 (ssRNA)
RNA: GGGACGCUCACGUACGCUCAUGUUCCGGGCCGACUGGCUGUUAGAGAUCUCUGAUGUAGGUCAGUGCCUGGACGUGCAGU
modifications: 3' A20 tail for capture
B7: X region SEQ 2347 (ssRNA)
RNA: GGGACGCUCACGUACGCUCAUUUUUCCUCUUUGCCCUAUGUUUGGGCGACGCAUCCGGGUUCAGUGCCUGGACGUGCAGU
modifications: 3' A20 tail for capture
B8: X region SEQ 2341 (ssRNA)
RNA: GGGACGCUCACGUACGCUCAUGUCCGCUGUUAAAGAUCGCGACUCUGGGCCCUGAUCGAUUCAGUGCCUGGACGUGCAGU
modifications: 3' A20 tail for capture
B9: #7030 (ssRNA)
RNA: GGGACGCUCACGUACGCUCAAUGAGCUCACCUGGGUAAUUGGCGCCAAUUCAAGGGUCUGUCAGUGCCUGGACGUGCAGU
modifications: 3' A20 tail for capture
B10: #7008 (ssRNA)
RNA: GGGACGCUCACGUACGCUCAUUGUCUUGGUGUAUUGGUUACUGUCCAAUGGGCGGUGUAUUCAGUGCCUGGACGUGCAGU
modifications: 3' A20 tail for capture
B11: #7034 (ssRNA)
RNA: GGGACGCUCACGUACGCUCAAAAUGCUGUUGCAGGUUAUUUGGCUCUCGGUCUGAGAAUGUCAGUGCCUGGACGUGCAGU
modifications: 3' A20 tail for capture
B12: #7004 (ssRNA)
RNA: GGGACGCUCACGUACGCUCAGGCGUUCUUCGCUGUAGUUCCGGUUUAUUGGUCUUUGUUUUCAGUGCCUGGACGUGCAGU
modifications: 3' A20 tail for capture
B13: #748 (ssRNA)
RNA: GGGACGCUCACGUACGCUCAGCGCUUCUCGUUUGCUUUCCGGGUUCAUUGGUCCAUGUUUUCAGUGCCUGGACGUGCAGU
modifications: 3' A20 tail for capture
B14: #7062 (ssRNA)
RNA: GGGACGCUCACGUACGCUCAUCUCGCCGCAUUUCCAGGUUUUUUGGCGCUUAUGAAUGAUCAGUGCCUGGACGUGCAGU
modifications: 3' A20 tail for capture
B15: #736 (ssRNA)
RNA: GGGACGCUCACGUACGCUCACCUCAAGUCGGGUCUAUUGUCUCCGGCGAAGCAUGGACUGUCAGUGCCUGGACGUGCAGU
modifications: 3' A20 tail for capture
B16: #715 (ssRNA)
RNA: GGGACGCUCACGUACGCUCAUAGAGUGUAUUUGUACCAGGUAUACUGGCGCGAACGAAUGUCAGUGCCUGGACGUGCAGU
modifications: 3' A20 tail for capture
B17: #7052 (ssRNA)
RNA: GGGACGCUCACGUACGCUCAAUUCUGUUCUGUCUCUCCGGGUUUACUGGCGCUAUGAAUGUCAGUGCCUGGACGUGCAGU
modifications: 3' A20 tail for capture
B18: #730 (ssRNA)
RNA: GGGACGCUCACGUACGCUCAUUCGACCGGGUUAUUGGCUGCUCUCCUCUGGUUUGUGAUGUCAGUGCCUGGACGUGCAGU
modifications: 3' A20 tail for capture
B19: #7049 (ssRNA)
RNA: GGGACGCUCACGUACGCUCACGCUCAGGUGAAUUGGUUACGUUUUCUCUGACAAUGUGGAUCAGUGCCUGGACGUGCAGU
modifications: 3' A20 tail for capture
B20: #7007 (ssRNA)
RNA: GGGACGCUCACGUACGCUCAGAGAUCGUUCUGGUUAUUGGCGCCUUCUGAUAAAGGAAUGUCAGUGCCUGGACGUGCAGU
modifications: 3' A20 tail for capture
B21: #725 (ssRNA)
RNA: GGGACGCUCACGUACGCUCACAUGUCCGGGUGGAUUGGAUCGAUUACUUGUUUUCGUUUAUCAGUGCCUGGACGUGCAGU
modifications: 3' A20 tail for capture
B22: #719 (ssRNA)
RNA: GGGACGCUCACGUACGCUCAGCUCUCUUACUUCCUGGGUGACUGGCUCUUUCGGGGUAUGUCAGUGCCUGGACGUGCAGU
modifications: 3' A20 tail for capture
B23: #707 (ssRNA)
RNA: GGGACGCUCACGUACGCUCACGGUGGAUUGGCGACGAUGACCUUGAUAGUCCUCGUAAUGUCAGUGCCUGGACGUGCAGU
modifications: 3' A20 tail for capture
B24: #723 (ssRNA)
RNA: GGGACGCUCACGUACGCUCAGGUUAUUGGCGCCCUCGAACCAAAAUGGAUGCCGGGAAUGUCAGUGCCUGGACGUGCAGU
modifications: 3' A20 tail for capture
B25: #745 (ssRNA)
RNA: GGGACGCUCACGUACGCUCAGAGCCACGGGUUUACUGGCGCUAAACAAAUGUUUAGGAUGUCAGUGCCUGGACGUGCAGU
modifications: 3' A20 tail for capture
B26: #7029 (ssRNA)
RNA: GGGACGCUCACGUACGCUCACGAAAUCCAGGUUUGAUUGGCGUGGCACCCUUGCCAAGUGUCAGUGCCUGGACGUGCAGU
modifications: 3' A20 tail for capture
B27: #7015 (ssRNA)
RNA: GGGACGCUCACGUACGCUCAUGUCUCGGUUUAUUGGCGGUCGGACUUUUGCCCUGCGAUGUCAGUGCCUGGACGUGCAGU
modifications: 3' A20 tail for capture
B28: #7009 (ssRNA)
RNA: GGGACGCUCACGUACGCUCAUGAUUGAAUGGGCGAAUCGACCUUACCGGUUUUCUGCAACUCAGUGCCUGGACGUGCAGU
modifications: 3' A20 tail for capture
B29: #7054 (ssRNA)
RNA: GGGACGCUCACGUACGCUCAAAGUGUCUGCAAGUCUACCGGUUUAUUGGCCACUCCGUUUUCAGUGCCUGGACGUGCAGU
modifications: 3' A20 tail for capture
B30: #743 (ssRNA)
RNA: GGGACGCUCACGUACGCUCAACACUUGCUUUUUCUUGUCCGGGUUUAUUGGUCGUUGUAUUCAGUGCCUGGACGUGCAGU
modifications: 3' A20 tail for capture

Target: T1, His-MIF (His-tag/T7 gene 10 …)
Assay: SPR; data not shown
Details: MIF 115 aa; ATGen

Binding result, binds:
B1
B2
B3
B4
B5
B6
B7
B8

Target: T1, His-MIF (His-tag/T7 gene 10 …)
Assay: SPR; 600 nM His-MIF; data not shown
Details: MIF 115 aa; ATGen

Binding result, binds:
B9
B10
B11
B12
B13
B14
B15
B16
B17
B18
B19
B20
B21
B22
B23
B24
B25
B26
B27
B28
B29
B30
